# A protein production outcome set (Wang et al. 2014)
# Test: label from the status in PepcDB records
row,Sequence,protein production
1,NYLRDQVVMVGYGEVGRRITKTLMQQEIKVVIAEENREIVEDLRKKGIAAVSGEATEPSVLIQAHIMHARMLILSPMDILDIHRIVDIAKQLNPQIEVLCCAENKEEAEIIRQDEIGLVFYAKEEMAKNMSHHILGQIERAHHLSLGH,failed
2,MNPTFHADKPIYSQISDWMKKQMITGEWKGEDKLPSVREMGVKLAVNPNTVSRAYQELERAGYIYAKRGMGSFVTSDKALFDQLKKELADAITERFLEEAKSIGLDDQTAIELLIKRSRNHE,not failed
3,MGQVEVIDRRQSVFGDDIQLQKRSSSYEIISNGVFLMSTENGRSEREMVTLGAQHMKNAVHSVLIGGLGVGITADEAVHLNDHVQVHVVEIEPSVVEWQYRYLYPFSNQALEHERTAIIISDIQQWLRTNERTYDLICLDTDNGPDWMVHKQNASLYGKIGLELVRERVRVGGAVSFWSASASESFLHELETLFDRVYEHAVSLEHHHHHH,failed
4,MKHAKQIAEHATIQSFLNCYLRETGSGEWITEDKRIEDIFYHLFQRDTCSTYLCCRLSAQNITLYGEVIYKSPTDRHLFGEQFYYQMGDSNSVMKADYVTVITFLIKEMSINYGEGTNPAELMLRVIRSCQNIEEFTKERKEDTSALYGFHTSFIEAEQSLLFGHLTHPTPKSRQGILEWKSAMYSPELKGECQLHYFRAHKSIVNEKSLLLDSTTVILKEELRNDEMVSKEFISKYCNEDEYSLLPIHPLQAEWLLHQPYVQDWIEQGVLEYIGPTGKCYMATSSLRTLYHPDAKYMLKFSFPVKVTNSMRINKLKELESGLEGKAMLNTAIGEVLEKFPGFDFICDPAFITLNYGTQESGFEVIIRENPFYSEHADDATLIAGLVQDAIPGERTRLSNIIHRLADLESRSCEEVSLEWFRRYMNISLKPMVWMYLQYGVALEAHQQNSVVQLKDGYPVKYYFRDNQGFYFCNSMKEMLNNELAGIGERTGNLYDDYIVDERFRYYLIFNHMFGLINGFGTAGLIREEILLTELRTVLESFLPYNREPSTFLRELLEEDKLACKANLLTRFFDVDELSNPLEQAIYVQVQNPLVREVAVRS,failed
5,MIPEIAGLPALEWTSSAGHASYDEAEATLTLAAASGVDWTNDSLGGEPQHGATALGFRAPAAFSLSARVLVASPRTTFDAGVLTLWADSDHWAKLCFEYSPQGEAMVVSVVTNGYSDDSNGPVVTAPWVYLRVSRVGPAWAFHSSTDGRDWSLVRLFRLDTEKPVHVGFMSQAPMGDGCEARFDAIELKEEPPAELRDGS,failed
6,MSRAKAAPVAGPEVAANRAGRQARIVAILSSAQVRSQNELAALLAAEGIEVTQATLSRDLEELGAVKLRGADGGTGIYVVPEDGSPVRGVSGGTDRMARLLGELLVSTDDSGNLAVLRTPPGAAHYLASAIDRAALPQVVGTIAGDDTILVVAREPTTGAQLAGMFENLR,not failed
7,MKKFNIKSLTLLIVLLPLIVNANNIDSHLLEQNDIAKYVAQSDTVGSFFERFSALLNYPIVVSKQAAKKRISGEFDLSNPEEMLEKLTLLVGLIWYKDGNALYIYDSGELISKVILLENISLNYLIQYLKDANLYDHRYPIRGNISDKTFYISGPPALVELVANTATLLDKQVSSIGTDKVNFGVIKLKNTFVSDRTYNMRGEDIVIPGVATVVERLLNNGKALSNRQAQNDPMPPFNITQKVSEDSNDFSFSSVTNSSILEDVSLIAYPETNSILVKGNDQQIQIIRDIITQLDIAKRHIELSLWIIDIDKSELNNLGVNWQGTASFGDSFGASFNMSSSASISTLDGNKFIASVMALNQKKKANVVSRPVILTQENIPAIFDNNRTFYVSLVGERNSSLEHVTYGTLINVIPRFSSRGQIEMSLTIEDGTGNSQSNYNYNNENTSVLPEVGRTKISTIARVPQGKSLLIGGYTHETNSNEIISIPFLSSIPVIGNVFKYKTSNISNIVRVFLIQPREIKESSYYNTAEYKSLISEREIQKTTQIIPSETTLLEDEKSLVSYLNY,failed
8,MLKKMLKSYDYSLIFAIVLLCGFGLVMVYSSSMITAVSRYGVSSNFFFMRQLFALIAGGALFILMALFPYKALAHQKFQKGILLVSVLALISLFVFGHVAGNAQSWFKIGGMSIQPGEFVKLVVILYLAAVYAKKQSYIDHLLTGVAPPVVMTLIICGLIAMQPDFGTAMIIGLIATCMILCSGFSGKTLVRLVILGGIVFILVSPIIYLNQDKILTEGRLARFESLEDPFKYANSSGLQVINSYYAISSGGIFGLGLGESIQKYGYLPESHTDFIMAVIAEELGIFGVLFVIFLLGFVVIKGFYIARKCEDPFGSLLAIGISSMIAIQSFINLGGVSGLIPITGVTLPFISYGGSSLVLLLGSMGILANISMFVKYSENKKKKEPLAPKGMKKKQLKKTVYL,failed
9,MAKYKVGMVSLGCDKNRVDSEIMLGMVQNEYELTNNPKEADIIIVNTCGFIEKAKQESINTILDMAKYKTSHNCKLLIATGCLTQRYGDELLELMPEIDIMLGVNDYAKINEAIMNFINGNNEKVKATNYSDVSINEGLRLITTDKATAYLRIAEGCDNFCTYCIIPKIRGKFRSRALESIVEEAKKLAENGVKELILIAQDTTNYGIDIYGEKKLHLVLRELAKIEGIEWIRVLYCYPEAIYDELIKEISVNDKVCNYLDLPIQHISNNVLKRMGRKTTKEEIIGKINDLRKNVPNIVLRTSLIVGFPGESCEDFNELKDFIKTIKLDKVGVFTYSREEGTPAAIMEDQIDEEVKKAREEEIMLLQKEVSEEINKNKVGREYDVLIEKFNGEYYIGRSYEMAPDIDGCIYVKGNGAKKDQFCKVKIEKALEYDLVGVVCNESCKLEHHHHHH,failed
10,GFSHRSQQLLEQSVAKQLPLLERKYHQKNLEAAMVVTDIASGEIRALVGGRESGYAGFNRALNAKRHIGSLIKPAIYVAALERYQQYNFATILDDKAITLRNGTGKKWQPKNYDGKYRGQVSLIEGLVFSLNVPTINLGMSLGLDSVADAIKALGYQQKLKMRPSVLLGAVNMSPLEINQLYLAIANNGYYQKTHTITKILSSNNETLWQKQQSSEQRLSSNAAYLLDYALERVTQVGTARSLTWRLNNKKVAGKTGTSNALRDSWFIGYDSKHLITTWLGKDNNKPTGLTGSSGALPLFADFINKQGVINKVEAK,failed
11,MDYLVKALAYDGKVRAYAARTTDMVNEGQRRHGTWPTASAALGRTMTASLMLGAMLKGDDKLTVKIEGGGPIGAIVADANAKGEVRAYVSNPQVHFDLNEQGKLDVRRAVGTNGTLSVVKDLGLREFFTGQVEIVSGELGDDFTYYLVSSEQVPSSVGVGVLVNPDNTILAAGGFIIQLMPGTDDETITKIEQRLSQVEPISKLIQKGLTPEEILEEVLGEKPEILETMPVRFHCPCSKERFETAILGLGKKEIQDMIEEDGQAEAVCHFCNEKYLFTKEELEGLRDQTTR,not failed
12,MWTTRLVRSGLAALCAAVLVSSGCARFNDAQSQPFTTEPELRPQPSSTPPPPPPLPPVPFPKECPAPGVMQGCLESTSGLIMGIDSKTALVAERITGAVEEISISAEPKVKTVIPVDPAGDGGLMDIVLSPTYSQDRLMYAYISTPTDNRVVRVADGDIPKDILTGIPKGAAGNTGALIFTSPTTLVVMTGDAGDPALAADPQSLAGKVLRIEQPTTIDQTPPTTALSGIGSGGGLCIDPVDGSLYVADRTPTADRLQRITKNSEVSTVWTWPDKPGVAGCAAMDGTVLVNLINTKLTVAVRLAPSTGAVTGEPDVVRKDTHAHAWALRMSPDGNVWGATVNKTAGDAEKLDDVVFPLFPQGGGFPRNNDDKT,failed
13,MQTKKAFLYVFNTMSDWEYGYLIAELNSGRYFKKDLAPLKVITVGANKEMITTMGGLRIKPDISLDECTLESKDLLILPGGTTWSEEIHQPILERIGQALKIGTIVAAICGATDALANMGYLDTRKHTSNNLEYTKMVCPNYKGEKFYELGPAVSDANLVTASGIAPLEFAMEVLKKIDVFTLDALHSWYNLNKTHKPEYFFQLMNSINK,not failed
14,MIKDCANRYFLSFVVEVEPNTTIANNQSIGIDLGLKTFAVMSNGEKALSPDYSKHDRKIRKLQKKLARQQKDSKRRNNTRVKIAKLHNQIADTRKDFLHKLSTKIINDNQVIVLEDLNVSGMVKNSRLSRVISLQGWREFRNLCEAKSEKFSRDFRVIDRWQPTSQICSCCGFRWGKIDLSVRSILCLSCGTEQERDENASRNIEMVGMGHRHDLKRAGSDCQTTSVASYCELSRITEVESR,failed
